Measured values taken from patent US20240043512A1 (IMCARE BIOTECH, published 2024).

T1: Peptide A (entire sequence of AS-SPIK without disulfide bonds) (human, cysteine side-groups inactivated, no disulfide bonds)
T1 construct: Synthesized by BioMatik
T1 peptide: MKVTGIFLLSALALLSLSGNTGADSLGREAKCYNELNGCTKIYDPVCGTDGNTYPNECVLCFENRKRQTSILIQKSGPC


What was measured:
IM-CA22 = assay: competition ELISA: 0.5 µg/mL peptide added to prevent the binding of AS-SPIK with IM-CA22; inhibition rate from OD value with vs without peptide
[1] = biological target: T1, Peptide A (entire sequence of AS-SPIK …); assay: ELISA, plate coated with peptide, HRP-labelled antibody
Text: In order to further support the observation that epitopes specific to AS-SPIK and not NS-SPIK are conformation-dependent, additional tests to evaluate antibody binding to various synthesized peptides was completed. Four peptides, each containing sequences from different regions of AS-SPIK were synthesized by BioMatik (Wilmington DE). Peptide A contains the entire sequence of AS-SPIK, but without the formation of any disulfide bonds via the inactivation of cysteine side-groups. Peptide B contains the sequence of AS-SPIK fragment from M₁-G₅₀, Peptide C contains the sequence of AS-SPIK fragment from D₂₃-G₅₀ and Peptide D contains the sequence of AS-SPIK fragment from N₅₁-C₇₉. The binding activity of our monoclonal antibodies to AS-SPIK and the other peptides was tested by ELISA and results for IM-CA22 are shown in FIG. 6. Similar results were obtained from all other monoclonal anti-AS-SPIK antibodies we have developed, including IM-CA18, IM-CA46, IM-CA77, IM-A1, IM-A6, IM-B10, IM-C6, IM-D3, IM-D5, IM-E2, IM-F5, IM-G6 and IM-G7. Briefly, a 96-well plate was coated with Native AS-SPIK and different peptides, the plate then reacted with anti-AS-SPIK antibody (IM-CA22 herein) labeled with HRP. The OD450 nm was determined after incubating the plate with the substrate, TMB.

IM-CA22, sequence (VH, as listed by the source, chain 1 of 2): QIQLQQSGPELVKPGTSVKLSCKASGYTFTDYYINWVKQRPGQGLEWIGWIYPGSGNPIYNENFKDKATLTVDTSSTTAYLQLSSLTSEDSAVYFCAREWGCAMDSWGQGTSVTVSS
IM-CA22, sequence (VL, as listed by the source, chain 2 of 2): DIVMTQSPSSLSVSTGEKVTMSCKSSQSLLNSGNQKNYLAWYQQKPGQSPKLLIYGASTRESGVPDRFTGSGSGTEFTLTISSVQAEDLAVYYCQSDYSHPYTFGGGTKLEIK

Binder | Inhibition % (IM-CA22) [%] | binding result [1]
LSLSGNTGA [SPIK8] | 11 | 
SLSGNTGADSLGR [SPIK2] | 10 | 
LLSLSGNTGADSL [SPIK3] | 11 | 
IM-C6 (antibody, V domains shown, Rabbit monoclonal, Class II) VH: QSVKESEGGLFKPTDALTLTCTVSGFSLSSYAISWVRQAPGSGLEWIGAINTYGGTYYASWAKSRSTITRNTNENTVTLKMTSLTAADTATYFCARDFDSDAYTSASGGMDWGPGTLVTVSS VL: AYDMTQTPASVEVAVGGTVTIKCQASQSINNYLSWYQQIPGQPPKLLIYRASTLASGVSSRFKGSGSGTQFTLTISGVQCADAATYYCQQGYTSNVDNVFGGGTEVVVKG |  | no binding
SGNTGADSLGREA [SPIK1] | 9 | 
IM-E2 (antibody, V domains shown, Rabbit monoclonal, Class II) VH: QSVKESEGGLFKPTDTLTLTCTVSGFSLSAYAISWVRQAPGNGLEWIGAINSGGSAYYANWAKSRSTITRNTNLNTVTLKMTSLTAADTATYFCAREDIYDYGGAFDPWGPGTLVTVST VL: AYDMTQTPASVEVTVGGTVTIKCQASQGISSYLSWYQQKPGQPPKLLIYAATTLVSGVSSRFKGSGSGTQFTLTISGVECADAATYYCQQDYTTSNVDNTFGGGTEVVVKG |  | no binding
